Assays:
Assay in all cases: cell-based or functional assay
[1] = molecular target: T1, cynomolgus monkey RXFP1 receptor (cynomolgus monkey)
T1 sequence: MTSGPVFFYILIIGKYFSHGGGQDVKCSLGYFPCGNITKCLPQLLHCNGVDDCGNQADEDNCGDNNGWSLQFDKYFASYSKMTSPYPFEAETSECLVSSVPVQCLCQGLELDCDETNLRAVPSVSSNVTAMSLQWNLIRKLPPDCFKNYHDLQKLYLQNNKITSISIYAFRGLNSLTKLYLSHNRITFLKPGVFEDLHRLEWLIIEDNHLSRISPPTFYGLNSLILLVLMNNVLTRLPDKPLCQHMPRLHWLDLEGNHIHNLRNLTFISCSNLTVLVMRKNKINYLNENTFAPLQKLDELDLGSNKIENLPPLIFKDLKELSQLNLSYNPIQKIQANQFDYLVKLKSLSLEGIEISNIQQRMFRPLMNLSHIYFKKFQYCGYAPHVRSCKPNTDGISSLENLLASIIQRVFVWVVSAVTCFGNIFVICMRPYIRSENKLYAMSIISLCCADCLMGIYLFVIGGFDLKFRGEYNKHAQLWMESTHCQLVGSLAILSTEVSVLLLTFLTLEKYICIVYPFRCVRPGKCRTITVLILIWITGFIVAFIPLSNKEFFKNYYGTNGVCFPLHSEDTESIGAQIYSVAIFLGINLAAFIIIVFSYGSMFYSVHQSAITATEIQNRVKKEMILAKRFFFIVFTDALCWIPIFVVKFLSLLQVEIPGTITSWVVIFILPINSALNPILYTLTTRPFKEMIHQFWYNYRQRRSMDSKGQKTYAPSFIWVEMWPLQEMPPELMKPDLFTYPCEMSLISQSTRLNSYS

dog RXFP1 receptor (dog) = molecular target: dog RXFP1 receptor (dog)
[2] = molecular target: T2, human RXFP1 receptor (human) (UniProt Q9HBX9)
T2 sequence (looked up): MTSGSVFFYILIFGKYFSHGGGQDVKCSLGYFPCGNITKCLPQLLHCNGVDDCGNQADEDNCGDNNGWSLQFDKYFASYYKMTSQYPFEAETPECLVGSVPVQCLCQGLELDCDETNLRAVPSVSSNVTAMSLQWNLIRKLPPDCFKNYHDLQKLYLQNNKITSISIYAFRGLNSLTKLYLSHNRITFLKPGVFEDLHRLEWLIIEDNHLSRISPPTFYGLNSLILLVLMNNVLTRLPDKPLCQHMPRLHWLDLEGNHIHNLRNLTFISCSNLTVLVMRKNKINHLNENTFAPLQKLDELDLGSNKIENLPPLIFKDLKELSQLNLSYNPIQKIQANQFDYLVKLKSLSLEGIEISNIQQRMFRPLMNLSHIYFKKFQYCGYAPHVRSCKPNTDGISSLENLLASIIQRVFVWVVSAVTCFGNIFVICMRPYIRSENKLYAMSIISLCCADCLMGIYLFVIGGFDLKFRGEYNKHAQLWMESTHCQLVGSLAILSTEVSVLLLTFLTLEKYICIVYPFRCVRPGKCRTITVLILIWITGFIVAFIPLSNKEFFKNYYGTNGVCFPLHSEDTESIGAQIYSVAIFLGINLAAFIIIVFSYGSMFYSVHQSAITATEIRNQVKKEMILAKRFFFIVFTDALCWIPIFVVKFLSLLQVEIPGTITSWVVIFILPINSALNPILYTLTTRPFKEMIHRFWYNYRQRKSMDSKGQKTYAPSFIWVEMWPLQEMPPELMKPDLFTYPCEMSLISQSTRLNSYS

[3] = molecular target: human RXFP2 receptor (human) (UniProt Q8WXD0)
[4] = molecular target: T3, mouse RXFP1 receptor (mouse) (UniProt Q6R6I7)
T3 sequence (looked up): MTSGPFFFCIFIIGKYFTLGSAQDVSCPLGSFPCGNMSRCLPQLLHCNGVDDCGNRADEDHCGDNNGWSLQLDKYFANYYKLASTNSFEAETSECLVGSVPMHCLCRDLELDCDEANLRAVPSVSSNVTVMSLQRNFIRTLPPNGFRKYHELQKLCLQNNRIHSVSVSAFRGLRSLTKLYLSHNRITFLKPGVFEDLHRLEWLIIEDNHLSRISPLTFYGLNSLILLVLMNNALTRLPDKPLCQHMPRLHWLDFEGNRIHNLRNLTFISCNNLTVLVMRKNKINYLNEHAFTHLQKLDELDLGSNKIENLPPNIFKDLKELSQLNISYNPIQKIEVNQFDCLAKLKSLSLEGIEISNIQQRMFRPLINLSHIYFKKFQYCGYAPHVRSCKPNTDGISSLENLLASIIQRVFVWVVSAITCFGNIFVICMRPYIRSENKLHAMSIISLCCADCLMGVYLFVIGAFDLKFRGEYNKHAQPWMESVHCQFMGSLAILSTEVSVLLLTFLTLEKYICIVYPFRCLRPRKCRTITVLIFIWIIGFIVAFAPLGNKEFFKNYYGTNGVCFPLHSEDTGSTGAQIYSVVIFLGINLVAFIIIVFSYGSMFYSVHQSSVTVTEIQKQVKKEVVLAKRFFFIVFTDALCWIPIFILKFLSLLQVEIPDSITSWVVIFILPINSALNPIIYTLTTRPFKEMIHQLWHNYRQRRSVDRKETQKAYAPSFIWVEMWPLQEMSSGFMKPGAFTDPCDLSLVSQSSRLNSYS

rat RXFP1 receptor (rat) = molecular target: T4, rat RXFP1 receptor (rat) (UniProt Q6R6I6)
T4 sequence (looked up): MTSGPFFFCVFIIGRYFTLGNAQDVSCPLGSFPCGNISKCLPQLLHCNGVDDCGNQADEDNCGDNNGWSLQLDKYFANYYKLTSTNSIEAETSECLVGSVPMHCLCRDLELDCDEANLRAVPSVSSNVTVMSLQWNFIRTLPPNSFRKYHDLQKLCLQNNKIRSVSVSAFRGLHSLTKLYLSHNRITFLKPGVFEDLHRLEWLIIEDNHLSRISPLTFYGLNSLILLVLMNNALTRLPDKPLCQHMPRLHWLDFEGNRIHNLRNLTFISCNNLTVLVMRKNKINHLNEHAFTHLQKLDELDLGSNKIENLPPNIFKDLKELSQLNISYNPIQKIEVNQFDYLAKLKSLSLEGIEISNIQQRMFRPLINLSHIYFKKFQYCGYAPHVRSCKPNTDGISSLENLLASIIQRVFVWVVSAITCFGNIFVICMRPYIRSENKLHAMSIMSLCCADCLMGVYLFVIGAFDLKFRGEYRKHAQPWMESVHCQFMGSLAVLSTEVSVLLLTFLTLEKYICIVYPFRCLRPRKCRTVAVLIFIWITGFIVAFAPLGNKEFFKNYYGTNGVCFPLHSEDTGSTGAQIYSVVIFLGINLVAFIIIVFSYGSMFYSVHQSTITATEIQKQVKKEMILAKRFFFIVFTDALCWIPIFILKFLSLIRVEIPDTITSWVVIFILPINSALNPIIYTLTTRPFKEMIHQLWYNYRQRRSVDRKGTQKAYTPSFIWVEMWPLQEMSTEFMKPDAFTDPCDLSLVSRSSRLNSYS

B1: 0054 (protein)
chain: EVQLLESGGGLVQPGGSLRLSCAASGRYIDETAVAWFRQAPGKGREFVAGIGGGVDITYYADSVKGRFTISRDNSKNTLYLQMNSLRPEDTAVYYCAARPGRPLITSKVADLYPYWGQGTLVTVSSGGGGQGGGGQGGGGQGGGGQGGGGQSWMEEVIKLCGRELVRAQIAICGMSTWSGGGSGGSGGGQLYSALANKCCHVGCTKRSLARFC
B1 gave an EC50 (nM), cAMP production in CHO-K1 cells with receptor overexpression [1] of 21.8 nM, an EC50 (nM), cAMP production in CHO-K1 cells with receptor overexpression (dog RXFP1 receptor (dog)) of 3040 nM and an EC50 (nM), cAMP production in CHO-K1 cells with receptor overexpression [2] of 25.6 nM. For the same binder, the EC50 (nM), cAMP production in THP1 cells, 1% HSA [2] was 15.8 nM, the EC50 (nM), cAMP production in THP1 cells, without HSA [2] was 10.3 nM and the EC50 (nM), cAMP production in CHO-K1 cells with receptor overexpression [3] was 1350 nM. The EC50 (nM), cAMP production in CHO-K1 cells with receptor overexpression [4] was 23.4 nM and the EC50 (nM), cAMP production in CHO-K1 cells with receptor overexpression (rat RXFP1 receptor (rat)) was 10.5 nM.
